Measurements: US20040167074A1, “Therapeutic applications of mFLINT polypeptides” (priority 1998, published 2004)

Assays:
Fas [1] = assay: ELISA: 100 ng Fas adsorbed, FasL 10 ng, anti-Flag M2 detection
Fas [2] = assay: ELISA: 100 ng Fas adsorbed, FasL 50 ng, anti-Flag M2 detection
Fas [3] = assay: ELISA: 100 ng Fas adsorbed, FasL 0.1 ng, anti-Flag M2 detection
Fas [4] = assay: ELISA: 100 ng Fas adsorbed, FasL 0.5 ng, anti-Flag M2 detection
Fas [5] = assay: ELISA: 100 ng Fas adsorbed, FasL 1.0 ng, anti-Flag M2 detection
Fas [6] = assay: ELISA: 100 ng Fas adsorbed, FasL 100 ng, anti-Flag M2 detection
Fas [7] = assay: ELISA: 100 ng Fas adsorbed, FasL 5.0 ng, anti-Flag M2 detection
[8] = biological target: T1, mFLINT (mature human FLINT, non-Flagged, made according to Examples 8 and 9) (human) (UniProt O95407); assay: ELISA: 100 ng FLINT adsorbed, FasL 10 ng, anti-Flag M2 detection
T1 sequence (chain, glycosylated (p-0200)): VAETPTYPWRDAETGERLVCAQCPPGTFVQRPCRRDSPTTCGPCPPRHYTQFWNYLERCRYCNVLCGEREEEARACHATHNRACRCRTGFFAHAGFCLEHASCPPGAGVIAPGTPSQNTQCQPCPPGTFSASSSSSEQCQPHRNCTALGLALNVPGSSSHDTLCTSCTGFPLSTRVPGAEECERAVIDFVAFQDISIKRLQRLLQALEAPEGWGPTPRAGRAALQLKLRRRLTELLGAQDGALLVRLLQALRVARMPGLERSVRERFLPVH

[9] = biological target: T1, mFLINT (mature human FLINT, non-Flagged, made according to Examples 8 and 9) (human); assay: ELISA: 100 ng FLINT adsorbed, FasL 50 ng, anti-Flag M2 detection
mrecFas [10] = assay: ELISA: 100 ng mrecFas adsorbed, FasL 1 ng, anti-Flag M2 detection
mrecFas [11] = assay: ELISA: 100 ng mrecFas adsorbed, FasL 5 ng, anti-Flag M2 detection
[12] = biological target: T1, mFLINT (mature human FLINT, non-Flagged, made according to Examples 8 and 9) (human); assay: ELISA: 100 ng FLINT adsorbed, FasL 0.1 ng, anti-Flag M2 detection
[13] = biological target: T1, mFLINT (mature human FLINT, non-Flagged, made according to Examples 8 and 9) (human); assay: ELISA: 100 ng FLINT adsorbed, FasL 0.5 ng, anti-Flag M2 detection
[14] = biological target: T1, mFLINT (mature human FLINT, non-Flagged, made according to Examples 8 and 9) (human); assay: ELISA: 100 ng FLINT adsorbed, FasL 1.0 ng, anti-Flag M2 detection
[15] = biological target: T1, mFLINT (mature human FLINT, non-Flagged, made according to Examples 8 and 9) (human); assay: ELISA: 100 ng FLINT adsorbed, FasL 100 ng, anti-Flag M2 detection
[16] = biological target: T1, mFLINT (mature human FLINT, non-Flagged, made according to Examples 8 and 9) (human); assay: ELISA: 100 ng FLINT adsorbed, FasL 5.0 ng, anti-Flag M2 detection
mrecFas [17] = assay: ELISA: 100 ng mrecFas adsorbed, FasL 10 ng, anti-Flag M2 detection
mrecFas [18] = assay: ELISA: 100 ng mrecFas adsorbed, FasL 50 ng, anti-Flag M2 detection
mrecFas [19] = assay: ELISA: 100 ng mrecFas adsorbed, FasL 100 ng, anti-Flag M2 detection
mrecFas [20] = assay: ELISA: 100 ng mrecFas adsorbed, FasL 500 ng, anti-Flag M2 detection

Chain of hFasLigand (Flag-tagged) (P48023 103-281 limits assumed): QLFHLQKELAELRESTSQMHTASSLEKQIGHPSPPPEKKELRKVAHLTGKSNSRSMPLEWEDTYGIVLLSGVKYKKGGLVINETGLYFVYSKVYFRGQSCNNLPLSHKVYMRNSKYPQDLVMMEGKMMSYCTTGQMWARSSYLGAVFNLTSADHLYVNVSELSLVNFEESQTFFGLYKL
Chain of Fas (P25445 whole entry): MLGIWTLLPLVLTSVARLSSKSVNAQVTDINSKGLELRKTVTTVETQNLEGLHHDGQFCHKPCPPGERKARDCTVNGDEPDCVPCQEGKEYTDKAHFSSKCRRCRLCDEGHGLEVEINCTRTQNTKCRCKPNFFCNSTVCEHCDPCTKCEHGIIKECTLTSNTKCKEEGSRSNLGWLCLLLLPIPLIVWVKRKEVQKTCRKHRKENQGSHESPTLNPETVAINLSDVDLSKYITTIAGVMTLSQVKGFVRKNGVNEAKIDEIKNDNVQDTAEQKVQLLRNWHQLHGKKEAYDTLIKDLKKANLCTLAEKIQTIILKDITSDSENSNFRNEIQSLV

- Fas OD, 405 nM (Fas [1]): 0.03 OD, 405 nM
- Fas OD, 405 nM (Fas [2]): 0.045 OD, 405 nM
- Fas OD, 405 nM (Fas [3]): 0 OD, 405 nM
- Fas OD, 405 nM (Fas [4]): 0 OD, 405 nM
- Fas OD, 405 nM (Fas [5]): 0 OD, 405 nM
- Fas OD, 405 nM (Fas [6]): 0.18 OD, 405 nM
- Fas OD, 405 nM (Fas [7]): 0.01 OD, 405 nM
- FLINT OD [8]: 0.12 OD, 405 nM
- FLINT OD [9]: 0.28 OD, 405 nM
- OD, 405 nM (mrecFas [10]): 0.1 OD, 405 nM
- OD, 405 nM (mrecFas [11]): 0.2 OD, 405 nM
- FLINT OD [12]: 0 OD, 405 nM
- FLINT OD [13]: 0 OD, 405 nM
- FLINT OD [14]: 0.02 OD, 405 nM
- FLINT OD [15]: 0.78 OD, 405 nM
- FLINT OD [16]: 0.04 OD, 405 nM
- OD, 405 nM (mrecFas [17]): 0.3 OD, 405 nM
- OD, 405 nM (mrecFas [18]): 0.7 OD, 405 nM
- OD, 405 nM (mrecFas [19]): 1.2 OD, 405 nM
- OD, 405 nM (mrecFas [20]): 1.6 OD, 405 nM
Substance: hFasLigand (Flag-tagged) (from UniProt P48023)
